Experimental data reported in patent US20150056630A1, “DNA CONTROLLING MIR-140 EXPRESSION, AND SCREENING METHOD OF DRUGS USING SAID DNA” (NATIONAL CENTER FOR CHILD HEALTH AND DEVELOPMENT, priority 2012, published 2015).
Substitutions are numbered along the chain they refer to.

Experiments:
[1] = target: T1, Sox9 (recombinant, rSox9) (UniProt Q04887 Q04887:1-507); experiment: EMSA; 0.1 ug rSox9, poly dG-dC, 50 mM KCl, room temperature; supershift with anti-Sox9; details: label: 32P
Method: (§1) To a reaction solution containing 20 mmol/L of HEPES (pH 7.9), 10% of glycerol, 50 mmol/L of KCl, 0.05% of NP-40, 0.5 mmol/L of EDTA, 0.5 mmol/L of DTT, 1 mmol/L of PMSF and 0.25 μg of Poly dG-dC was/were appropriately added 0.1 μg of a recombinant Sox9 (rSox9) and/or an anti-Sox9 antibody (manufactured by Millipore Corporation) followed by incubating at room temperature for 30 minutes. After that, the above RI-labeled probe was added, incubated at room temperature for 30 minutes and subjected to 4% polyacrylamide gel electrophoresis. After the electrophoresis, RI was detected using FLA-7000 (manufactured by Fujifilm) which is an image analysis apparatus.

recombinant Sox9 (rSox9) = target: T2, recombinant Sox9 (rSox9) (Homo sapiens, UniProt P48436); experiment: Electrophoretic mobility shift assay (EMSA), Sox9 binding of RI-labeled probes; details: for shift of the band: incubation with rSox9
T2 sequence (P48436 1-509): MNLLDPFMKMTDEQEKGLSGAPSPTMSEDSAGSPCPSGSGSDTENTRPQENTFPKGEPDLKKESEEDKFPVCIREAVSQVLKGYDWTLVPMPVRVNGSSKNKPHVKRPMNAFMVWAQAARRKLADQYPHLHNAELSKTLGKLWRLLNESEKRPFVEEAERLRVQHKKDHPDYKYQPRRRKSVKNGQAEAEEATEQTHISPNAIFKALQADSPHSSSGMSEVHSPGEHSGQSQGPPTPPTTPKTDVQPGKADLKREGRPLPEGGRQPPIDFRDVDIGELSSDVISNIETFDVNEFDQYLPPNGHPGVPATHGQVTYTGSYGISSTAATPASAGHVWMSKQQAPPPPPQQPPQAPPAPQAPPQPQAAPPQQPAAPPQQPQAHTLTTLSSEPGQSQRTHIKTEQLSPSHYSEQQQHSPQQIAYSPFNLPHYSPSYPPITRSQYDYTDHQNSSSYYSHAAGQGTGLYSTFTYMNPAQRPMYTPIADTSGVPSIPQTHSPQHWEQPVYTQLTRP
Method: To a reaction solution comprising 1× Protruding End Kinase buffer, 0.4 μmol/L of sense oligo or antisense oligo and 1 U of T4 Polynucleotide Kinase (manufactured by Toyobo Co., Ltd.) was added P^32 γATP followed by subjecting to a reaction at 37° C. for 1 hour. The sense oligo and the antisense oligo finishing each of their reactions were mixed, incubated at 99° C. for 10 seconds and gradually returned to room temperature during 1 hour to prepare a double-stranded DNA labeled with radioisotope (RI). The RI-labeled probe was used after purifying by PrbeQuant G-50 Micro Column.
as §1

[2] = target: T1, Sox9 (recombinant, rSox9); experiment: EMSA; right-side half-site mutated; shift disappeared; details: label: 32P
Method: as §1

[3] = target: T1, Sox9 (recombinant, rSox9); experiment: EMSA; left-side half-site mutated; shift still observed; details: label: 32P
Method: as §1

[4] = target: T1, Sox9 (recombinant, rSox9); experiment: EMSA; both sides mutated; shift disappeared; details: label: 32P
Method: as §1

B1: miR140-PSB probe (dsDNA)
DNA 1: CTGGACTGAGCCCCATTCATCGTCCTGCTGCT
DNA 2: AGCAGCAGGACGATGAATGGGGCTCAGTCCAG
- binding result [1]: binds

B2: miR-140-PSB-mut1: RI-labeled probe, SEQ ID Nos. 30/31, mutation in the right side of the palindromic Sox9 binding sequence (nucleic acid)
chain 1: B1 DNA 1 with T16G, T17G
chain 2: B1 DNA 2 with A16C, A17C
modifications: DNA, backbone and methylation of C not given here; radioisotope-labeled double-stranded DNA probe, further chemistry not fully specified
- shift of the band (recombinant Sox9 (rSox9)): shift of the band disappeared

B3: miR-140-PSB: RI-labeled double-stranded DNA probe, SEQ ID Nos. 28/29, palindromic Sox9 binding sequence (Table 3: miR140-PSB) (nucleic acid)
chain 1: B1 DNA 1
chain 2: B1 DNA 2
modifications: DNA, backbone and methylation of C not given here; radioisotope-labeled double-stranded DNA probe, further chemistry not fully specified
- shift of the band (recombinant Sox9 (rSox9)): shift of the band was observed
- supershift of the band (recombinant Sox9 (rSox9); rSox9 and further incubation with anti-Sox9 antibody): supershift of the band was observed

B4: miR140-PSB-mut1 probe (dsDNA)
DNA 1: B1 DNA 1 with T16G, T17G
DNA 2: B1 DNA 2 with A16C, A17C
- binding result [2]: no binding

B5: miR-140-PSB-mut2: RI-labeled probe, SEQ ID Nos. 32/33, mutation in the left side of the palindromic Sox9 binding sequence (nucleic acid)
chain 1: B1 DNA 1 with A5G, C6T, A9G
chain 2: B1 DNA 2 with T24C, G27A, T28C
modifications: DNA, backbone and methylation of C not given here; radioisotope-labeled double-stranded DNA probe, further chemistry not fully specified
- shift of the band (recombinant Sox9 (rSox9)): shift of the band was observed

B6: miR140-PSB-mut2 probe (dsDNA)
DNA 1: B1 DNA 1 with A5G, C6T, A9G
DNA 2: B1 DNA 2 with T24C, G27A, T28C
- binding result [3]: binds

B7: miR140-PSB-mut3 probe (dsDNA)
DNA 1: CTGGGTTGGGCCCCAGGCATCGTCCTGCTGCT
DNA 2: AGCAGCAGGACGATGCCTGGGGCCCAACCCAG
- binding result [4]: no binding

B8: miR-140-PSB-mut3: RI-labeled probe, SEQ ID Nos. 34/35, mutation in both sides of the palindromic Sox9 binding sequence (nucleic acid)
chain 1: B7 DNA 1
chain 2: B7 DNA 2
modifications: DNA, backbone and methylation of C not given here; radioisotope-labeled double-stranded DNA probe, further chemistry not fully specified
- shift of the band (recombinant Sox9 (rSox9)): shift of the band disappeared
